Assay [1] deals with integrin αvβ8 on β8-expressing HT1080 cells (wild-type β8) (human (endogenous in HT1080) | human) (UniProt P06756). Description: flow cytometry on cells.
For assay [2], the target named is T1, integrin αvβ8 (construct of the affinity and cross-competition measurements, not told) (Homo sapiens, UniProt P06756;P26012). The assay can be described thus: flow cytometry on cells. (A flow cytometer gives signals particle by particle.)
The target of assay [3] is T1, integrin αvβ8 (construct of the …).

Changes are numbered by the printed parent chain. Where two headings read alike, the source gives them in different places.

T1 sequence (P06756 31-1048, chain 1 of 2): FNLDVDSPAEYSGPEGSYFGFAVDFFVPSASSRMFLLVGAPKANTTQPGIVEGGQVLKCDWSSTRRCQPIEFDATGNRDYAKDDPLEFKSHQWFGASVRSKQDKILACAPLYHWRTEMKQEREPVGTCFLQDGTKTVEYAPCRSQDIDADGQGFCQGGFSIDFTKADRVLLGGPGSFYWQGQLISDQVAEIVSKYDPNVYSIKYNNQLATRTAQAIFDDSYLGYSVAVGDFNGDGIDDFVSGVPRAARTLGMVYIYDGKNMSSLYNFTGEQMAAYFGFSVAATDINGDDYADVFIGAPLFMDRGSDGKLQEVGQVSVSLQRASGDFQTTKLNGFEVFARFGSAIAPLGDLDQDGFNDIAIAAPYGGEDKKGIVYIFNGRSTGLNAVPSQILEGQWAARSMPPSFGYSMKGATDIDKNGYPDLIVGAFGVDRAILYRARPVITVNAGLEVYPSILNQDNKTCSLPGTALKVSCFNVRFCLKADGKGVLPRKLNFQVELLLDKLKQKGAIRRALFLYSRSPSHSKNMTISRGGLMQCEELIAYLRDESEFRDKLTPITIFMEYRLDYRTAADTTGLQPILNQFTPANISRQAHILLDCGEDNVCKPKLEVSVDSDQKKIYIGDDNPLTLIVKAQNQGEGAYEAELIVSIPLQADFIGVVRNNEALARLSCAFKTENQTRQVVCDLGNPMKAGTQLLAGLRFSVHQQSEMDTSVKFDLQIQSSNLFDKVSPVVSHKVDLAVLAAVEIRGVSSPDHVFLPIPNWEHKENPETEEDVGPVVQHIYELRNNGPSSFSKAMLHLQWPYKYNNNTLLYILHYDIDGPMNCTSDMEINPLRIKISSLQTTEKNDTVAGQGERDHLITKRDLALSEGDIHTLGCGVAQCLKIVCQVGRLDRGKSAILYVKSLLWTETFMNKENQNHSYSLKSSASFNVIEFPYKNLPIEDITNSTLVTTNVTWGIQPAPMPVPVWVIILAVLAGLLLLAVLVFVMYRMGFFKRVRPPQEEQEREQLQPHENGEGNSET
T1 sequence (P26012 43-769, chain 2 of 2): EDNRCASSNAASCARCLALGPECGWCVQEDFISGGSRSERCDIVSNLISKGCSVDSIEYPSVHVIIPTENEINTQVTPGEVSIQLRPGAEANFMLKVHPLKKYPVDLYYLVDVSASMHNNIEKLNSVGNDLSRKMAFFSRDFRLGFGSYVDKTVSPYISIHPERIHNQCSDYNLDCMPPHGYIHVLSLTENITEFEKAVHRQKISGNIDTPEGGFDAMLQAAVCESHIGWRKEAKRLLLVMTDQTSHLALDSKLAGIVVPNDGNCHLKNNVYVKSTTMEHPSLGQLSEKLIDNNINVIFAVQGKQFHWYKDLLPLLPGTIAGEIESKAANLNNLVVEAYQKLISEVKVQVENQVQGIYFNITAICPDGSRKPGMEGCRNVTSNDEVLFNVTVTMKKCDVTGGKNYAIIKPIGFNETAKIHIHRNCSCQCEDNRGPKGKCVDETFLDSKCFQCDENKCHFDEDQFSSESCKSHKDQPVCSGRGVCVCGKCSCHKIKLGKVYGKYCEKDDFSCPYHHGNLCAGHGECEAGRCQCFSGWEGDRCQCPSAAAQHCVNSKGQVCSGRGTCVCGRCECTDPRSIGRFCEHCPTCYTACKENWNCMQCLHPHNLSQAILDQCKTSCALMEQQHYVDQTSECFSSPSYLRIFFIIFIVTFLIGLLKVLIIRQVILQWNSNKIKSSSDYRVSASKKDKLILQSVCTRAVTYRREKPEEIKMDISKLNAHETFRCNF
Sequence of integrin αvβ8 on β8-expressing HT1080 cells (wild-type β8) (human (endogenous in HT1080) | human) (P06756 31-1048, chain 1 of 2): as the sequence (P06756 31-1048, chain 1 of 2) above
Sequence of integrin αvβ8 on β8-expressing HT1080 cells (wild-type β8) (human (endogenous in HT1080) | human) (P26012 43-769, chain 2 of 2, further chain): as the sequence (P26012 43-769, chain 2 of 2) above

“latency-associated peptide (from UniProt P01137 30-278) (ligand)”: the percent decrease of B5 binding to β8-expressing HT1080 cells in assay [1] turned out to be 29%.

B1: 37E1 single-chain antibody fragment (scFv) on yeast (scFv, V domains shown)
VH: EVQLVESGGGLVQPGGSLNLSCAASGFVFSRYWMSWVRQAPGKGLEWIGEINPDSSTINYTSSLKDKFIISRDNAKNTLYLQMNKVRSEDTALYYCACLITTEDYWGQGTSVTVSS
VL: QIVLTQSPSSMYASLGERVTIPCKASQDINSYLSWFQQKPGKSPKTLIYRANRLVDGVPSRFSGSGSGQDYSLTISSLEYEDMGIYYCLQYDEFPYTFGGGTKLEIK
On to B1, for which the Kd (commonly the constant that tells how readily two partners part at equilibrium) in assay [2] worked out at 118 nM.

B2: B5 intact IgG (antibody, V domains shown)
VH: B1 VH with A24V
VL: B1 VL with R50Y
In assay [3], B2 had a Kd of 0.54 nM.

B3: B5 single-chain antibody fragment (scFv) on yeast (scFv, V domains shown)
VH: B1 VH with A24V
VL: B1 VL with R50Y
Molecule B3 showed a Kd in assay [2] of 15.4 nM.

Source of the values: article PMC4341974 (Science translational medicine, 2014).
